To fix the notation:
T1: SigB (residues 1–262) (Bacillus subtilis strain 168, UniProt P06574 1-262)
T1 construct: RNA polymerase sigma-B factor SigB, Bacillus subtilis strain 168, residues 1-262; also called alternative sigma factor SigB; source: E. coli BL21 Star (DE3), co-expressed with RsbW (modified pETDuet-1), co-purified as RsbW–SigB complex
T1 sequence (looked up): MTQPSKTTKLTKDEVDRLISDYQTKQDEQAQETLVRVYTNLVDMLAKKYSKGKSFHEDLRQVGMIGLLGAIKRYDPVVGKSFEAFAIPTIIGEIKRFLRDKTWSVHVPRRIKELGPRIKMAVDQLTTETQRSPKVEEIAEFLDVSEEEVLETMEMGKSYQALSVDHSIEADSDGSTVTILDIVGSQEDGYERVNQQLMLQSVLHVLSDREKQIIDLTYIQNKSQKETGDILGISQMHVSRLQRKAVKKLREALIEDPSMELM

B1: RsbV (residues 1–109) (natural protein, Bacillus subtilis strain 168, UniProt P17903 1-109, looked up)
chain: MNINVDVKQNENDIQVNIAGEIDVYSAPVLREKLVPLAEQGADLRICLKDVSYMDSTGLGVFVGTFKMVKKQGGSLKLENLSERLIRLFDITGLKDIIDISAKSEGGVQ
notes: Anti-anti-sigma-B factor RsbV, Bacillus subtilis strain 168, residues 1-109 (called full-length); Tag removed with TEV protease; also called full-length RsbV; anti-anti-sigma factor RsbV; source: E. coli BL21 Star (DE3); co-expressed with RsbW (modified pETDuet-1) or expressed alone (modified pET-28b); purified (HisTrap, TEV cleavage, SEC); not shown: His6, N-terminal, cleaved; thioredoxin, …
B2: RsbW (residues 1–160), expressed alone (natural protein, Bacillus subtilis strain 168, UniProt P17904 1-160, looked up)
chain: MKNNADYIEMKVPAQPEYVGIIRLTLSGVASRMGYTYDEIEDLKIAVSEACTNAVQHAYKEDKNGEVSIRFGVFEDRLEVIVADEGDSFDFDQKQQDLGPYTPSHTVDQLSEGGLGLYLMETLMDEVRVQNHSGVTVAMTKYLNGERVDHDTTIKNYETN
notes: Anti-sigma-B factor RsbW, Bacillus subtilis strain 168, residues 1-160; 'RsbV and RsbW alone were similarly expressed and purified following the same procedures'; also called RsbW alone; source: E. coli BL21 Star (DE3), modified pET-28b, purified (HisTrap, TEV cleavage, Superdex 75 SEC); not shown: His6, N-terminal, cleaved; thioredoxin, N-terminal, cleaved
B3: RsbW (residues 1–160), co-expressed with SigB (natural protein, Bacillus subtilis strain 168, UniProt P17904 1-160, looked up)
chain: B2 chain
notes: Anti-sigma-B factor RsbW, Bacillus subtilis strain 168, residues 1-160; source: E. coli BL21 Star (DE3), co-expressed with SigB (modified pETDuet-1), co-purified as RsbW–SigB complex
B4: RsbW (residues 1–160), co-expressed with RsbV (natural protein, Bacillus subtilis strain 168, UniProt P17904 1-160, looked up)
chain: B2 chain
notes: Serine-protein kinase / anti-sigma-B factor RsbW, Bacillus subtilis strain 168, residues 1-160 (called full-length); Four copies stand in the RsbV–RsbW octamer; also called full-length RsbW; anti-sigma factor RsbW
B5: RsbW_(5–145) (residues 5–145) (domain or fragment, Bacillus subtilis strain 168, UniProt P17904 5-145, looked up)
chain: ADYIEMKVPAQPEYVGIIRLTLSGVASRMGYTYDEIEDLKIAVSEACTNAVQHAYKEDKNGEVSIRFGVFEDRLEVIVADEGDSFDFDQKQQDLGPYTPSHTVDQLSEGGLGLYLMETLMDEVRVQNHSGVTVAMTKYLNG
notes: Residues 59–64 and 85–113 (monoclinic) or 86–109 (hexagonal) are not visible in the crystal structures; also called truncated RsbW

In data set [1] the target is B4. As to the kind of experiment: AF4-MALS; co-purified complexes or RsbW alone in phosphate-buffered saline pH 7.4; 50 µl injected. Conditions: both partners purified.
Data set [2] deals with the molecule itself. Described as above.
The target in data set [3] is T1, SigB (residues 1–262). The data set is described as above. Conditions: both partners purified.
Data set [4] deals with the molecule itself. As to the kind of experiment: crystal structure; RsbV_(1–104)–RsbW_(5–145) complex; monoclinic crystals (25% PEG 1500, 100 mM SPG pH 8.5, 3.4 Å) and hexagonal crystals (20% PEG 3350, 200 mM potassium formate, excess ADP, 3.1 Å), 20°C.

Consider five molecules from paper PMC7340262, “Structural insights into the regulation of SigB activity by RsbV and RsbW” (IUCrJ, 2020).

As a reminder, the stoichiometry N is the number of molecules, sites or subunits per partner or assembly.

On to B1, for which the “stoichiometry N” value in data set [1] was determined as 1 RsbV per RsbW.

On to B2, for which the “stoichiometry N” value in data set [2] is 4.

As for B3, the “stoichiometry N” value was 4 in data set [2] and 2 RsbW per SigB in data set [3].

B4: the “stoichiometry N” value in data set [2] amounted to 4.

For the molecule B5, in data set [4], the “stoichiometry N” value came to 4.
